# Laboratory results as given in US6509447B1, “G protein chimeras and methods of screening compounds” (Glaxo Welcome Inc., priority 1997, dated 2003).
# B1: Gpa1p: endogenous yeast Gα subunit, product of the GPA1 gene (protein, UniProt P08539 2-472, looked up)
# Guanine nucleotide-binding …: GCTVSTQTIGDESDPFLQNKRANDVIEQSLQLEKQRDKNEIKLLLLGAGESGKSTVLKQLKLLHQGGFSHQERLQYAQVIWADAIQSMKILIIQARKLGIQLDCDDPINNKDLFACKRILLKAKALDYINASVAGGSDFLNDYVLKYSERYETRRRVQSTGRAKAAFDEDGNISNVKSDTDRDAETVTQNEDADRNNSSRINLQDICKDLNQEGDDQMFVRKTSREIQGQNRRNLIHEDIAKAIKQLWNNDKGIKQCFARSNEFQLEGSAAYYFDNIEKFASPNYVCTDEDILKGRIKTTGITETEFNIGSSKFKVLDAGGQRSERKKWIHCFEGITAVLFVLAMSEYDQMLFEDERVNRMHESIMLFDTLLNSKWFKDTPFILFLNKIDLFEEKVKSMPIRKYFPDYQGRVGDAEAGLKYFEKIFLSLNKTNKPIYVKRTCATDTQTMKFVLSAVTDLIIQQNLKKIGII
# How the values were obtained:
# serotonin 5HT1D receptor = target: T1, serotonin 5HT1D receptor (Homo sapiens, UniProt P28221); assay: CPRG assay, MMY11 cells expressing 5-HT1D receptor plus Gα subunit; assay type: cell-based; parameters: key: weak activation insufficient to carry out curve-fitting was detected; NC: no coupling was detected
# T1 construct: expressed in transfected cells; host or cells: Saccharomyces cerevisiae strain MMY11, plasmid pDT-PGK-5-HT1D
# Protocol: Assay for combined FUS1-lacZ and FUS1-HIS3 Expression. In vivo assays of reporter gene induction (CPRG assays) were carried out by suspending cells to 0.02 OD600 in 200 μl SC-glucose (2%) lacking tryptophan, uracil and histidine. This medium was supplemented with agonists, and additionally 10 mM 3-aminotriazole and the β-galactosidase (lacZ) substrate chlorophenolred-β-D-galactopyranoside (CPRG; Boehringer) to a concentration of 0.1 mg/ml. To visualise the colour change reaction, the medium was buffered to pH 7 with 0.1 M sodium phosphate. The assay was conducted in a 96-well microtitre plate format. Plates were incubated for 24 hours without agitation, and absorbance at 570 nm was determined using a Victor microtitre plate reader (Wallac). EC50 values (+/−standard error) were estimated by curve-fitting, using the Robosage software package.
# MMY11 was used in an experiment in which cells were transformed with pairs of plasmids as before, one to express a Gα subunit and the other a receptor expression construct. […] Where pheromone response pathway activation was detected, the agonist concentration required to yield a half-maximal response (EC50+/−standard error; all values in nM except where otherwise indicated) was determined by curve-fitting, and is shown in Table 4A. Where no coupling was detected, this is also indicated (NC).
# [1] = target: T2, purinergic nucleotide receptor, P2Y2 (Homo sapiens, UniProt P41231); assay: Reverse halo assay for FUS1-HIS3 expression, MMY9 cells, P2Y2; assay type: cell-based; conditions: MMY9 cells with pRS314-GPA1 and P2Y2 receptor, 100 nmol UTP
# T2 construct: expressed in transfected cells; host or cells: Saccharomyces cerevisiae strains MMY9 and MMY11, plasmid pDT-PGK-P2Y2
# Protocol: Assay for FUS1-HIS3 Expression. Reverse halo assays were carried out by growing MMY9 cells to early stationary phase (OD600≈4) in liquid SC-glucose (2%) medium lacking tryptophan and uracil. A uniform layer of cells (5×10^7) was plated to 22.5 cm by 22.5 cm bioassay dishes (Nunc) in 100 ml SC-glucose agar (1%) equilibrated to 50° C. This medium lacked tryptophan, uracil and histidine, and was supplemented with 10 mM 3-aminotriazole, and buffered to pH 7.0 with 0.1M sodium phosphate. Antibiotic discs were placed on the solidified agar, and a volume of agonist solution (1-5 μl) was applied to each disc. Plates were incubated at 30° C. for 3 days.
# The four receptors were: the melatonin ML1B receptor, the serotonin 5HT1A receptor, the somatostatin SST2 receptor and the purinergic nucleotide receptor, P2Y2. […] Activation of the pheromone response pathway was monitored with two integrated reporter genes: […] allowing a growth readout in medium lacking histidine, and FUS1-lacZ allowing a β-galactosidase readout. […] Agonist-dependent activation of FUS1-HIS3 was determined by reverse halo assay in which agonists were applied to the filter discs in the arrangement shown in panel A, in quantities as follows: 3 nmol of somatostatin-14 (S-14); 40 nmol of melatonin (Mel); 3 nmol of α-factor; 100 nmol of UTP; 40 nmol of serotonin (5-HT). […]
# T2 sequence (P41231 whole entry): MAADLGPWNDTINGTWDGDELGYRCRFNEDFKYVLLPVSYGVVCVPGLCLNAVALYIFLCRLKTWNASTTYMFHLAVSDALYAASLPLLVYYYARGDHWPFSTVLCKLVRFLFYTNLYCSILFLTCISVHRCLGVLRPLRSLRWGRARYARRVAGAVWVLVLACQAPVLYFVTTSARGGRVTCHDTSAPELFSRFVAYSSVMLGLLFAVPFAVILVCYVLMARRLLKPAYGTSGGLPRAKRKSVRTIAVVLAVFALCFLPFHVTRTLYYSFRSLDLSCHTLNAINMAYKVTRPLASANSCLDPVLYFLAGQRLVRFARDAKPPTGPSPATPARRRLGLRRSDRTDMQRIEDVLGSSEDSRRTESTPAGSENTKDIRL
# T1 sequence (P28221 whole entry): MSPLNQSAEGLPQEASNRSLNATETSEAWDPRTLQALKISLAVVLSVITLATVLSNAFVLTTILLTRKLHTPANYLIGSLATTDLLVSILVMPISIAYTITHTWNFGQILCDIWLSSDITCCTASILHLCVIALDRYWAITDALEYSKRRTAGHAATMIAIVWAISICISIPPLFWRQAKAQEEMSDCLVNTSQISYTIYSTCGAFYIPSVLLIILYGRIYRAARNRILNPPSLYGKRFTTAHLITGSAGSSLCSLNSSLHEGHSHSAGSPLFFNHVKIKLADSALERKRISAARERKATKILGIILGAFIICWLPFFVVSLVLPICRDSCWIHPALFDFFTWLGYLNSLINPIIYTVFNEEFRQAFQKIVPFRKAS
molecule,measurement,setting,value
B1,coupling class where no EC50 could be fitted,serotonin 5HT1D receptor,NC
same,agonist-dependent activation of FUS1-HIS3 (halo of cell growth),[1],responded to the agonist UTP
